# ± gives the uncertainty stated by the source.
# B1: Nuclear receptor subfamily 1 group D member 2, residues 103 to 171; numbered along this chain, Q14995 (parent)
# chain: CKVCGDVASGFHYGVHACEGCKGFFRRSIQQNIQYKKCLKNENCSIMRMNRNRCQQCRFKKCLSVGMSR
# Variants of: B1
# Assay: abundance fitness (aPCA) (normalised: wild type 0, dead -1); higher = more abundant; growth selection in yeast, the domain comes from the species named
# Settings: Homo sapiens
row,Variant,abundance fitness
1,CKVCGDVASGFHYGVHACEGCKGFFRRSIQQNIQYKKCLKNENCSIMRMNRNRCQQCRFKKCISVGMSR [L63I],0.268 ± 0.22
2,CKVCGDVASGFHYGVHACEGCKGFFRRSIQQNIQYKKCLKNENCSIMRMNRNRCQQCRFKKCQSVGMSR [L63Q],-0.329 ± 0.21
3,CKVCGDVASGFHYGVHACEGCKGFFRRSIQQNIQYKKCLKNENCSIMRMNRNRCQQCRFKKCVSVGMSR [L63V],-0.502 ± 0.2
4,CKVCGDVASGFHYGVHACEGCKGFFRRSIQQNIQYKKCLKNENCSIMRMNRNRCQQCRFKKCLSVPMSR [G66P],-0.802 ± 0.49
5,CKVCGDVASGFHYGVHACEGCKGFFRRSIQQNIQYKKCLKNENCSIMRMNRNRCQQCRFKKCLSVVMSR [G66V],-0.798 ± 0.23
6,CKVCGDVASGFHYGVHACEGCKGFFRRSIQQNIQYKKCLKNENCSIMRMNRNRCQQCRFKKCLSVMMSR [G66M],-0.574 ± 0.4
7,CKVCGDVASGFHYGVHACEGCKGFFRRSIQQNIQYKKCLKNENCSIMRMNRNRCQQCRFKKCLSVFMSR [G66F],-0.562 ± 0.47
8,CKVCGDVASGFHYGVHACEGCKGFFRRSIQQNIQYKKCLKNENCSIMRMNRNRCQQCRFKKCLSVDMSR [G66D],-0.866 ± 0.41
9,CKVCGDVASGFHYGVHACEGCKGFFRRSIQQNIQYKKCLKNENCSIMRMNRNRCQQCRFKKCLSVLMSR [G66L],-0.459 ± 0.38
10,CKVCGDVASGFHYGVHACEGCKGFFRRSIQQNIQYKKCLKNENCSIMRMNRNRCQQCRFKWCLSVGMSR [K61W],-0.746 ± 0.21
11,CKVCGDVASGFHYGVHACEGCKGFFRRSIQQNIQYKKCLKNENCSIMRMNRNRCQQCRFKYCLSVGMSR [K61Y],-0.547 ± 0.44
12,CKVCGDVASGFHYGVHACEGCKGFFRRSIQQNIQYKKCLKNENCSIMRMNRNRCQQCRFKKCLSQGMSR [V65Q],-0.733 ± 0.17
13,CKVCGDVASGFHYGVHACEGCKGFFRRSIQQNIQYKKCLKNENCSIMRMNRNRCQQCRFKKCLSSGMSR [V65S],-0.291 ± 0.08
14,CKVCGDVASGFHYGVHACEGCKGFFRRSIQQNIQYKKCLKNENCSIMRMNRNRCQQCRFKKCLSKGMSR [V65K],-0.851 ± 0.24
15,CKVCGDVASGFHYGVHACEGCKGFFRRSIQQNIQYKKCLKNENCSIMRMNRNRCQQCRFKKCLSMGMSR [V65M],-0.012 ± 0.14
16,CKVCGDVASGFHYGVHACEGCKGFFRRSIQQNIQYKKCLKNENCSIMRMNRNRCQQCRFKKCLSRGMSR [V65R],-0.895 ± 0.14
17,CKVCGDVASGFHYGVHACEGCKGFFRRSIQQNIQYKKCLKNENCSIMRMNRNRCQQCRFKKCLSPGMSR [V65P],-0.814 ± 0.17
18,CKVCGDVASGFHYGVHACEGCKGFFRRSIQQNIQYKKCLKNENCSIMRMNRNRCQQCRFKKCLSYGMSR [V65Y],-0.234 ± 0.18
19,CKVCGDVASGFHYGVHACEGCKGFFRRSIQQNIQYKKCLKNENCSIMRMNRNRCQQCRFKKCLSLGMSR [V65L],-0.708 ± 0.13
20,CKVCGDVASGFHYGVHACEGCKGFFRRSIQQNIQYKKCLKNENCSIMRMNRNRCQQCRFKKCLSIGMSR [V65I],-0.308 ± 0.12

row,Variant,abundance fitness
1,CKVCGDVASGFHYGVHACEGCKGFFRRSIQQNIQYKKCLKNENCSIMRMNRNRCQQCRFKKCLSFGMSR [V65F],-0.739 ± 0.25
2,CKVCGDVASGFHYGVHACEGCKGFFRRSIQQNIQYKKCLKNENCSIMRMNRNRCQQCRFKKCLSWGMSR [V65W],-1.02 ± 0.37
3,CKVCGDVASGFHYGVHACEGCKGFFRRSIQQNIQYKKCLKNENCSIMRMNRNRCQQCRFKKCLSTGMSR [V65T],-0.536 ± 0.082
4,CKVCGDVASGFHYGVHACEGCKGFFRRSIQQNIQYKKCLKNENCSIMRMNRNRCQQCRFKKCLSDGMSR [V65D],-0.601 ± 0.2
5,CKVCGDVASGFHYGVHACEGCKGFFRRSIQQNIQYKKCLKNENCSIMRMNRNRCQQCRFKKCLSCGMSR [V65C],-0.571 ± 0.43
6,CKVCGDVASGFHYGVHACEGCKGFFRRSIQQNIQYKKCLKNENCSIMRMNRNRCQQCRFKKCLSAGMSR [V65A],-0.306 ± 0.092
7,CKVCGDVASGFHYGVHACEGCKGFFRRSIQQNIQYKKCLKNENCSIMRMNRNRCQQCRFKKCLSVGDSR [M67D],0.029 ± 0.21
8,CKVCGDVASGFHYGVHACEGCKGFFRRSIQQNIQYKKCLKNENCSIMRMNRNRCQQCRFKKCLSVGKSR [M67K],-0.688 ± 0.14
9,CKVCGDVASGFHYGVHACEGCKGFFRRSIQQNIQYKKCLKNENCSIMRMNRNRCQQCRFKKCLSVGRSR [M67R],-0.241 ± 0.09
10,CKVCGDVASGFHYGVHACEGCKGFFRRSIQQNIQYKKCLKNENCSIMRMNRNRCQQCRFKKCLSVGASR [M67A],-0.574 ± 0.13
11,CKVCGDVASGFHYGVHACEGCKGFFRRSIQQNIQYKKCLKNENCSIMRMNRNRCQQCRFKKCLSVGLSR [M67L],-0.817 ± 0.17
12,CKVCGDVASGFHYGVHACEGCKGFFRRSIQQNIQYKKCLKNENCSIMRMNRNRCQQCRFKKCLSVGYSR [M67Y],-0.558 ± 0.42
13,CKVCGDVASGFHYGVHACEGCKGFFRRSIQQNIQYKKCLKNENCSIMRMNRNRCQQCRFKKCLSVGTSR [M67T],-0.822 ± 0.24
14,CKVCGDVASGFHYGVHACEGCKGFFRRSIQQNIQYKKCLKNENCSIMRMNRNRCQQCRFKKCLSVGWSR [M67W],-0.415 ± 0.2
15,CKVCGDVASGFHYGVHACEGCKGFFRRSIQQNIQYKKCLKNENCSIMRMNRNRCQQCRFKKCLSVGESR [M67E],-0.483 ± 0.25
16,CKVCGDVASGFHYGVHACEGCKGFFRRSIQQNIQYKKCLKNENCSIMRMNRNRCQQCRFKKCLSVGVSR [M67V],-0.794 ± 0.14
17,CKVCGDVASGFHYGVHACEGCKGFFRRSIQQNIQYKKCLKNENCSIMRMNRNRCQQCRFKKCLSVGHSR [M67H],-0.973 ± 0.33
18,CKVCGDVASGFHYGVHACEGCKGFFRRSIQQNIQYKKCLKNENCSIMRMNRNRCQQCRFKKCLSVGSSR [M67S],-0.925 ± 0.23
19,CKVCGDVASGFHYGVHACEGCKGFFRRSIQQNIQYKKCLKNENCSIMRMNRNRCQQCRFKKCLSVGGSR [M67G],-0.744 ± 0.13
